Assay results from publication PMC6327479.

System: T1, HicB-6His (Sinorhizobium meliloti), ORF:5e3b9e2c
T1 sequence: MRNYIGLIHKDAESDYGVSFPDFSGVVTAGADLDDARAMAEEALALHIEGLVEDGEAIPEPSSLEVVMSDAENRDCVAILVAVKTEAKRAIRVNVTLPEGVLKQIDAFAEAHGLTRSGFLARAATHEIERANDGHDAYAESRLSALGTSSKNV
Experiment: EMSA
Conditions: EMSA: 10 mM Tris-HCl pH 7.5, 50 mM NaCl, 1 mM DTT, 300 ug/ml BSA, 20 ul, 30 min at 25 C; 5% native PAGE in TAE pH 7.5

Question: Which binding does the source give for “GATCCGACGGTTCGAGACCATCCGAGAAAGCCGCCTTAGATTGGCTTGACAAATTCATTGGACGAATACACATGCGTGTGTATTGTCGTATCAGATGAAGAGCGGCGACATTATTGCAGCATTGCAGAAGGACGGATGGTACGAGGTTGCGACCAAGGGCAGCCACGTTCAATTCAAACATCCGAAAAAGCACGGCCGGGTTACCGTTCCTCACCCGAAGA (double strand) [hicAB promoter fragment]” here?
Answer: binds
